Laboratory results from paper PMC12225019.

Molecular target: TRIM21 (tripartite motif-containing 21) (UniProt P19474)
Test: co-IP, immunoblot
Details: reference: HMGA2 wild type; sites S105

binding against the reference: weaker
Substance: HMGA2 (high mobility group protein A2) (from UniProt P52926) HMGA2 S105A
